Data reported in the supplement of paper PMC10724198.
± gives the standard deviation of the averaged measurements.

What was measured:
Saccharomyces cerevisiae [1] = experiment: protein stability index of tFT-peptide fusion in wild type (PSI (0-1 scale)); higher = more stable (slower turnover); details: genetic background: wild type
Procedure: (§1)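 MPS profiling in S. cerevisiae of two library types built from selected 12-aa C-degron peptides (IN1, IN2, LN1, LN3, VN2, R1-R5, W1-W3, Atg1 and Rpa12 C-termini): saturation mutagenesis libraries and C-terminal +1 capping libraries (13 aa). Each peptide is fused to the C-terminus of a sfGFP-mCherry timer, after a GGGS linker. Cells are FACS-sorted into 8 mCherry/sfGFP bins and sequenced. PSI runs from 0 (unstable) to 1 (stable), measured once in wild type and in the das1Δ or doa10Δ background.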

Saccharomyces cerevisiae [2] = experiment: protein stability index of tFT-peptide fusion in deletion strain of DAS1 (PSI (0-1 scale)); higher = more stable (slower turnover)
Procedure: as §1

Saccharomyces cerevisiae [3] = experiment: protein stability index of tFT-peptide fusion (C-terminal peptide) (PSI (0-1 scale)); higher = more stable (slower turnover); details: temperature: 30 C
Procedure: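 MPS profiling in S. cerevisiae of the yeast C-terminome library: the last 12 aa of each annotated ORF are fused to the C-terminus of a sfGFP-mCherry timer, after a GGGS linker. Cells are FACS-sorted into 8 mCherry/sfGFP bins and deep-sequenced. PSI runs from 0 (unstable) to 1 (stable); wild type and das1Δ backgrounds, two technical replicates each.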

[4] = genetic background: das1 deletion
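Throughout, for protein stability index of tFT-peptide fusion in deletion strain of DAS1: PSI is a weighted mean of each variant's read distribution over the sorted stability bins, computed only for variants having over 10 reads in total.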
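Throughout, for protein stability index of tFT-peptide fusion in wild type: PSI derived as read-weighted mean over the 8 sorting bins, only variants exceeding 10 total reads kept, mCherry placed adjacent to the peptide and sfGFP distal.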

Row | Sequence | protein stability index (Saccharomyces cerevisiae [1]) | protein stability index (Saccharomyces cerevisiae [2]) | protein stability index (Saccharomyces cerevisiae [3]; [4]) | protein stability index (Saccharomyces cerevisiae [3]; genetic background: wild type)
1 | AIWRVGLWRGAS | 0.405 | 0.69 | – | –
2 | ARTRVGLWRGAS | 0.598 | 0.66 | – | –
3 | ARWRVGFWRGAS | 0.551 | 0.666 | – | –
4 | ARWRVGLLRGAS | 0.652 | 0.669 | – | –
5 | ARWRVGLWRGAQ | 0.411 | 0.679 | – | –
6 | ARWRVGLWRGNS | 0.553 | 0.68 | – | –
7 | ARWRVGYWRGAS | 0.478 | 0.691 | – | –
8 | ARWRVSLWRGAS | 0.268 | 0.687 | – | –
9 | CESCGYKFRTNN | 0.327 | 0.681 | – | –
10 | CMSCGYKFRTNN | 0.228 | 0.71 | – | –
11 | VMQVQCLFFFIL [YJL156W-A C-terminal 12 aa] | – | – | 0.556 ± 0.019 | 0.284 ± 0.0037
12 | VNNAPARAKVSK [RCR2 C-terminal 12 aa] | – | – | 0.67539 ± 0.00065 | 0.669 ± 0.0023
13 | VPELTEKLGKYK [AIM45 C-terminal 12 aa] | – | – | 0.697 ± 0.019 | 0.676 ± 0.026
14 | VRKNVTWNNLWE [CTF18 C-terminal 12 aa] | – | – | 0.705 ± 0.013 | 0.682 ± 0.042
15 | VRKVAQWLQQLT [FSH2 C-terminal 12 aa] | – | – | 0.6838 ± 0.0012 | 0.5807 ± 0.0037
16 | VSGFYDHDINGY [APJ1 C-terminal 12 aa] | – | – | 0.7529 ± 0.0033 | 0.722 ± 0.0078

Row | Sequence | protein stability index (Saccharomyces cerevisiae [1]) | protein stability index (Saccharomyces cerevisiae [2]) | protein stability index (Saccharomyces cerevisiae [3]; [4]) | protein stability index (Saccharomyces cerevisiae [3]; genetic background: wild type)
17 | VSIKKLGRKLEN [FYV6 C-terminal 12 aa] | – | – | 0.727 ± 0.023 | 0.6469 ± 0.0013
18 | VSMKAIFSCMYV [YMR272W-B C-terminal 12 aa] | – | – | 0.6576 ± 0.0051 | 0.655 ± 0.034
19 | VTGFKDEVLETV [RPS1A C-terminal 12 aa] | – | – | 0.7042 ± 0.001 | 0.682 ± 0.032
20 | VTGSVPAYCDDD [ART5 C-terminal 12 aa] | – | – | 0.6825 ± 0.0031 | 0.694 ± 0.011
21 | VTIFTWSSLLFV [TED1 C-terminal 12 aa] | – | – | 0.438 ± 0.0058 | 0.454 ± 0.0084
22 | VTNPKGRLALEA [RPL32 C-terminal 12 aa] | – | – | 0.6613 ± 0.0025 | 0.686 ± 0.026
23 | VTQILYTPIESS [SIP2 C-terminal 12 aa] | – | – | 0.679 ± 0.028 | 0.696 ± 0.03
24 | VTVYGGRSRMSA [YJL152W C-terminal 12 aa] | – | – | 0.6989 ± 0.0061 | 0.702 ± 0.02
25 | VVGFYFQGALSE [VNX1 C-terminal 12 aa] | – | – | 0.673 ± 0.025 | 0.708 ± 0.037
26 | VVIIVPIVVHFS [SNC2 C-terminal 12 aa] | – | – | 0.351 ± 0.012 | 0.425 ± 0.046
27 | VVKRKKVKTKRI [JJJ1 C-terminal 12 aa] | – | – | 0.689 ± 0.041 | 0.748 ± 0.14
28 | VVNNRIFSGISK [RSM26 C-terminal 12 aa] | – | – | 0.713 ± 0.027 | 0.698 ± 0.018
29 | VWKRARVDLIAS [POL12 C-terminal 12 aa] | – | – | 0.591 ± 0.019 | 0.51 ± 0.029
30 | VWLAAALPLAFI [PRM7 C-terminal 12 aa] | – | – | 0.58 ± 0.0063 | 0.56 ± 0.018
31 | VWSLYSRTALET [OAR1 C-terminal 12 aa] | – | – | 0.6176 ± 0.004 | 0.608 ± 0.012
32 | VYSIESRVLGHN [OAC1 C-terminal 12 aa] | – | – | 0.679 ± 0.015 | 0.676 ± 0.055
